From patent US20160279215A1, “NOVEL PEPTIDES AND COMBINATION OF PEPTIDES FOR USE IN IMMUNOTHERAPY AGAINST VARIOUS TUMORS” (immatics biotechnologies GmbH, priority 2015, published 2016) come the findings set out here.

The assay addresses T1, HLA-A*02:01 (Homo sapiens, UniProt P04439, D140Y/D185E/D98H/E176V/E277Q/G131W/G231S/I119V/I121R/I166T/I218V/L300P/L318F/N151K/N90K/P208A/P217A/Q86G/Q94H/R138H/R169H/T345S).
T1 construct: made in house
The experiment in a line: MHC binding assay: UV-ligand exchange with β2m ELISA (peptide exchange yield). To be noted: binding to HLA-A*02:01 evaluated by peptide exchange yield (UV-ligand exchange, β2m ELISA). An excerpt:
Candidate peptides for T cell based therapies according to the present invention were further tested for their MHC binding capacity (affinity). The individual peptide-MHC complexes were produced by UV-ligand exchange, where a UV-sensitive peptide is cleaved upon UV-irradiation, and exchanged with the peptide of interest as analyzed. Only peptide candidates that can effectively bind and stabilize the peptide-receptive MHC molecules prevent dissociation of the MHC complexes. To determine the yield of the exchange reaction, an ELISA was performed based on the detection of the light chain (β2m) of stabilized MHC complexes. The assay was performed as generally described in Rodenko et al. (Rodenko et al., 2006).
96 well MAXISorp plates (NUNC) were coated over night with 2 ug/ml streptavidin in PBS at room temperature, washed 4× and blocked for 1 h at 37° C. in 2% BSA containing blocking buffer. Refolded HLA-A*02:01/MLA-001 monomers served as standards, covering the range of 15-500 ng/ml. Peptide-MHC monomers of the UV-exchange reaction were diluted 100 fold in blocking buffer. Samples were incubated for 1 h at 37° C., washed four times, incubated with 2 ug/ml HRP conjugated anti-β2m for 1 h at 37° C., washed again and detected with TMB solution that is stopped with […]. Absorption was measured at 450 nm. Candidate peptides that show a high exchange yield (preferably higher than 50%, most preferred higher than 75%) are generally preferred for a generation and production of antibodies or fragments thereof, and/or T cell receptors or fragments thereof, as they show sufficient avidity to the MHC molecules and prevent dissociation of the MHC complexes.
On the technique in general: ELISA stands for enzyme-linked immunosorbent assay.

For “12 (RLLDPKTIFL; listed as Homo sapiens) [compound 12]”, the Peptide exchange entry is “+++ (≧50 = +++)”.

As to “266 (FLLDKPQDL; listed as Homo sapiens) [compound 266]”, the Peptide exchange result is given as “++ (≧20% = ++)”.

For “250 (LMQDSRLYL; listed as Homo sapiens) [compound 250]”, the Peptide exchange entry is given as “+++ (≧50 = +++)”.

Consider “181 (LLWAPTAQA; listed as Homo sapiens) [compound 181]”, for which the Peptide exchange entry is on record as “+++ (≧50 = +++)”.

Turning to “134 (SLYKSFLQL; listed as Homo sapiens) [compound 134]”, the Peptide exchange result is reported as “++ (≧20% = ++)”.

For “279 (VLMDEGAVLTL; listed as Homo sapiens) [compound 279]”, the Peptide exchange entry is “++ (≧20% = ++)”.

Consider “3 (RVIDDSLVVGV; listed as Homo sapiens) [compound 3]”, for which the Peptide exchange entry is recorded as “+++ (≧50 = +++)”.

For the substance “136 (LLWDAPAKC; listed as Homo sapiens) [compound 136]”, the Peptide exchange entry is on record as “+++ (≧50 = +++)”.

Regarding “49 (KLIGNIHGNEV; listed as Homo sapiens) [compound 49]”, the Peptide exchange result is “++ (≧20% = ++)”.

Regarding “158 (YLDPLWHQL; listed as Homo sapiens) [compound 158]”, the Peptide exchange entry is “+++ (≧50 = +++)”.

Consider “123 (QTAPEEAFIKL; listed as Homo sapiens) [compound 123]”, for which the Peptide exchange entry is “+ (≧10% = +)”.

Take “13 (RLHDENILL; listed as Homo sapiens) [compound 13]”: the Peptide exchange entry is given as “+++ (≧50 = +++)”.

As to “217 (LLWPSSVPA; listed as Homo sapiens) [compound 217]”, the Peptide exchange result is reported as “+++ (≧50 = +++)”.

Take “195 (VIIQNLPAL; listed as Homo sapiens) [compound 195]”: the Peptide exchange entry was “+++ (≧50 = +++)”.

For the substance “40 (KIWEELSVLEV; listed as Homo sapiens) [compound 40]”, the Peptide exchange result is given as “+++ (≧50 = +++)”.

“227 (SEMEELPSV; listed as Homo sapiens) [compound 227]”: the Peptide exchange result is “+ (≧10% = +)”.

For the substance “280 (HLWGHALFL; listed as Homo sapiens) [compound 280]”, the Peptide exchange entry is reported as “+++ (≧50 = +++)”.

Take “182 (GLQDGFQITV; listed as Homo sapiens) [compound 182]”: the Peptide exchange result is on record as “+++ (≧50 = +++)”.

As to “33 (TLDRNSLYV; listed as Homo sapiens) [compound 33]”, the Peptide exchange result is “++ (≧20% = ++)”.

As for “129 (KMASKVTQV; listed as Homo sapiens) [compound 129]”, the Peptide exchange entry was “++ (≧20% = ++)”.

Consider “231 (LLDDIFIRL; listed as Homo sapiens) [compound 231]”, for which the Peptide exchange result was “+++ (≧50 = +++)”.

For “143 (MLWESIMRV; listed as Homo sapiens) [compound 143]”, the Peptide exchange entry was “+++ (≧50 = +++)”.

With “190 (SLSTELFKV; listed as Homo sapiens) [compound 190]”, the Peptide exchange result is reported as “+++ (≧50 = +++)”.

Turning to “213 (ILAVDGVLSV; listed as Homo sapiens) [compound 213]”, the Peptide exchange entry is “+++ (≧50 = +++)”.

With “150 (VLLDMVHSL; listed as Homo sapiens) [compound 150]”, the Peptide exchange entry is recorded as “+++ (≧50 = +++)”.

Take “168 (VIFEGEPMYL; listed as Homo sapiens) [compound 168]”: the Peptide exchange result is on record as “+++ (≧50 = +++)”.

For “187 (SILKEDPFL; listed as Homo sapiens) [compound 187]”, the Peptide exchange result is recorded as “++ (≧20% = ++)”.

On to “80 (VLTGQVHEL; listed as Homo sapiens) [compound 80]”, for which the Peptide exchange entry is “+++ (≧50 = +++)”.

In the case of “272 (FVMEGEPPKL; listed as Homo sapiens) [compound 272]”, the Peptide exchange entry was “++ (≧20% = ++)”.

Regarding “220 (ALSELERVL; listed as Homo sapiens) [compound 220]”, the Peptide exchange entry was “+++ (≧50 = +++)”.

Take “207 (KLFETVEEL; listed as Homo sapiens) [compound 207]”: the Peptide exchange entry was “+++ (≧50 = +++)”.

“124 (ALLLRLFTI; listed as Homo sapiens) [compound 124]”: the Peptide exchange entry was “++ (≧20% = ++)”.

In the case of “28 (IKVTDPQLLEL; listed as Homo sapiens) [compound 28]”, the Peptide exchange result is reported as “++ (≧20% = ++)”.

Consider “155 (TLDSYLKAV; listed as Homo sapiens) [compound 155]”, for which the Peptide exchange entry was “++ (≧20% = ++)”.

On to “111 (AQLEGKLVSI; listed as Homo sapiens) [compound 111]”, for which the Peptide exchange result was “+++ (≧50 = +++)”.

Take “18 (KTASINQNV; listed as Homo sapiens) [compound 18]”: the Peptide exchange entry was “++ (≧20% = ++)”.

On to “256 (FLNDIFERI; listed as Homo sapiens) [compound 256]”, for which the Peptide exchange result is on record as “+++ (≧50 = +++)”.

Consider “133 (FLDGRPLTL; listed as Homo sapiens) [compound 133]”, for which the Peptide exchange result is “++ (≧20% = ++)”.

With “42 (KQMSISTGL; listed as Homo sapiens) [compound 42]”, the Peptide exchange result is “++ (≧20% = ++)”.

As to “31 (GLLETTGLLAT; listed as Homo sapiens) [compound 31]”, the Peptide exchange result is recorded as “+++ (≧50 = +++)”.

For the substance “164 (MLIIRVPSV; listed as Homo sapiens) [compound 164]”, the Peptide exchange entry is reported as “+++ (≧50 = +++)”.

In the case of “194 (KLLEEVQLL; listed as Homo sapiens) [compound 194]”, the Peptide exchange entry was “++ (≧20% = ++)”.

Take “184 (ALDSTIAHL; listed as Homo sapiens) [compound 184]”: the Peptide exchange result is on record as “++ (≧20% = ++)”.

With “278 (VLEDKVLSV; listed as Homo sapiens) [compound 278]”, the Peptide exchange entry is “+++ (≧50 = +++)”.

For the substance “219 (GVVPTIQKV; listed as Homo sapiens) [compound 219]”, the Peptide exchange entry is listed as “++ (≧20% = ++)”.

For “215 (QIADIVTSV; listed as Homo sapiens) [compound 215]”, the Peptide exchange result is on record as “++ (≧20% = ++)”.

“200 (IMPTFDLTKV; listed as Homo sapiens) [compound 200]”: the Peptide exchange entry is listed as “+++ (≧50 = +++)”.

For “128 (SILTNISEV; listed as Homo sapiens) [compound 128]”, the Peptide exchange entry is given as “++ (≧20% = ++)”.

In the case of “269 (GLLDCPIFL; listed as Homo sapiens) [compound 269]”, the Peptide exchange result was “++++ (≧75% = ++++)”.

In the case of “126 (QLREAFEQL; listed as Homo sapiens) [compound 126]”, the Peptide exchange result is listed as “+++ (≧50 = +++)”.

In the case of “130 (QLYGSAITL; listed as Homo sapiens) [compound 130]”, the Peptide exchange result is listed as “+++ (≧50 = +++)”.

For the substance “71 (HMSGKLTNV; listed as Homo sapiens) [compound 71]”, the Peptide exchange result was “++ (≧20% = ++)”.

Turning to “38 (VLQQESNFL; listed as Homo sapiens) [compound 38]”, the Peptide exchange result is given as “++ (≧20% = ++)”.

Turning to “247 (NLLIDDKGTIKL; listed as Homo sapiens) [compound 247]”, the Peptide exchange result is “++ (≧20% = ++)”.

In the case of “59 (ALADGIKSFLL; listed as Homo sapiens) [compound 59]”, the Peptide exchange result is given as “+++ (≧50 = +++)”.

With “243 (GLAEFQENV; listed as Homo sapiens) [compound 243]”, the Peptide exchange result was “++ (≧20% = ++)”.

Turning to “163 (GLEERLYTA; listed as Homo sapiens) [compound 163]”, the Peptide exchange entry was “++ (≧20% = ++)”.

Turning to “142 (LLDAAHASI; listed as Homo sapiens) [compound 142]”, the Peptide exchange result was “++ (≧20% = ++)”.

Take “183 (ALSYILPYL; listed as Homo sapiens) [compound 183]”: the Peptide exchange result was “+++ (≧50 = +++)”.

In the case of “154 (AIIKEIQTV; listed as Homo sapiens) [compound 154]”, the Peptide exchange result was “++ (≧20% = ++)”.

In the case of “159 (QLGPVPVTI; listed as Homo sapiens) [compound 159]”, the Peptide exchange result was “+++ (≧50 = +++)”.

Turning to “286 (FLTEMVHFI; listed as Homo sapiens) [compound 286]”, the Peptide exchange entry is “+++ (≧50 = +++)”.

On to “218 (SLTGANITV; listed as Homo sapiens) [compound 218]”, for which the Peptide exchange entry is recorded as “+++ (≧50 = +++)”.

On to “47 (GLNGFNVLL; listed as Homo sapiens) [compound 47]”, for which the Peptide exchange entry is “+++ (≧50 = +++)”.

On to “6 (FLNAIETAL; listed as Homo sapiens) [compound 6]”, for which the Peptide exchange result was “++++ (≧75% = ++++)”.

On to “265 (FLLDKPQDLSI; listed as Homo sapiens) [compound 265]”, for which the Peptide exchange result is listed as “+++ (≧50 = +++)”.
